In publication PMC6242907, “Molecular basis of maintaining an oxidizing environment under anaerobiosis by soluble fumarate reductase” (Nature Communications, 2018):

B1: His6-maltose-binding protein (H6-MBP)-fused Ero1 (56-424) (enzyme, yeast, UniProt Q03103 56-424, looked up)
chain: FNELNAINENIRDDLSALLKSDFFKYFRLDLYKQCSFWDANDGLCLNRACSVDVVEDWDTLPEYWQPEILGSFNNDTMKEADDSDDECKFLDQLCQTSKKPVDIEDTINYCDVNDFNGKNAVLIDLTANPERFTGYGGKQAGQIWSTIYQDNCFTIGETGESLAKDAFYRLVSGFHASIGTHLSKEYLNTKTGKWEPNLDLFMARIGNFPDRVTNMYFNYAVVAKALWKIQPYLPEFSFCDLVNKEIKNKMDNVISQLDTKIFNEDLVFANDLSLTLKDEFRSRFKNVTKIMDCVQCDRCRLWGKIQTTGYATALKILFEINDADEFTKQHIVGKLTKYELIALLQTFGRLSESIESVNMFEKMYGKRL
notes: Ero1, ER-resident flavoenzyme of yeast, residues 56-424; FAD cofactor; Uncleaved fusion (83 kDa) immobilised on the CM5 chip; a TEV site lies between H6-MBP and Ero1; The only purified MBP-Ero1 described in the methods is the H6-MBP fusion; also called MBP-Ero1; purified MBP-Ero1; source: E. coli Origami B(DE3), purified (HiTrap Ni2+, amylose)
B2: Ero1 (56-424), H6-MBP cleaved off (enzyme, yeast, UniProt Q03103 56-424, looked up)
chain: B1 chain
notes: Ero1, ER-resident flavoenzyme of yeast, residues 56-424; FAD cofactor; The ITC methods name only 'Ero1'; also called recombinant Ero1; source: E. coli Origami B(DE3), purified (HiTrap Ni2+, amylose, TEV cleavage, Ni2+ flow-through)

Columns and labels:
[1] = molecular target: T1, Osm1 (residues 32-501), 6x His-tagged (S. cerevisiae, UniProt P21375 32-501); assay: SPR; Biacore T-200, CM5 chip; MBP-Ero1 immobilised by amine coupling (1500 RU); Osm1 or chimeric Osm1 injected in PBS at 6.25 to 200 µM, 30 µL/min, 25 °C; affinity (steady-state) fitting; details: both partners purified
T1 construct: Osm1, soluble fumarate reductase of S. cerevisiae, amino acids 32-501, cloned in pET28a (NheI/XhoI); no removal of the tag is described except by trypsin for crystallisation; A31 is an extra residue from the cloning construct; The limits of the pET28a Osm1 used in the pull-down are not repeated in the methods; also called holo-Osm1; WT Osm1; source: also in lysate of BL21(DE3) co-expressing …
T1 sequence (P21375 32-501): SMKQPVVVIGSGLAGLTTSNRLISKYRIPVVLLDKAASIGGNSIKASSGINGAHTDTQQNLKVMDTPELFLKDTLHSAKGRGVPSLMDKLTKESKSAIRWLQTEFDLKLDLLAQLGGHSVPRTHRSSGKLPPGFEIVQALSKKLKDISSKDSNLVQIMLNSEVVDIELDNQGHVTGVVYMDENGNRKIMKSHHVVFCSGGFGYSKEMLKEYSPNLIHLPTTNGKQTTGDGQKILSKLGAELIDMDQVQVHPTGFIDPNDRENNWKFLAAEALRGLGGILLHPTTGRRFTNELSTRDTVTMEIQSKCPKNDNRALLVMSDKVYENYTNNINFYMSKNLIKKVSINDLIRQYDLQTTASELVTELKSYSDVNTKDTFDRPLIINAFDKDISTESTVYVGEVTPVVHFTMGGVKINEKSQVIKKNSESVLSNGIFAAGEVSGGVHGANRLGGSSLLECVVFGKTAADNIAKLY

[2] = molecular target: T1, Osm1 (residues 32-501), 6x His-tagged; assay: ITC; nano-ITC; 2.5 µL injections of 1.6 mM Osm1 into 40 µM Ero1 in PBS; details: both partners purified

Binder | Kd [1] | Kd [2]
B1 | ~200 µM | –
B2 | – | ~150 µM
